Source: US20160324958A1 (ALPHA O PEPTIDES, published 2016)

Columns and labels:
[1] = biological target: Toll-like receptor 5 (TLR5) on TLR5/SEAPorter HEK 293 cells (IMGENEX, Cat. No. IML-105) (UniProt O60602); experiment: cell-based or functional assay
[2] = biological target: Toll-like receptor 5 (TLR5) on TLR5/SEAPorter HEK 293 cells (IMGENEX, Cat. No. IML-105) (UniProt O60602 21-858); experiment: cell-based or functional assay
Chain of Toll-like receptor 5 (TLR5) on TLR5/SEAPorter HEK 293 cells (IMGENEX, Cat. No. IML-105) (UniProt O60602 21-858) (O60602 21-858 limits assumed): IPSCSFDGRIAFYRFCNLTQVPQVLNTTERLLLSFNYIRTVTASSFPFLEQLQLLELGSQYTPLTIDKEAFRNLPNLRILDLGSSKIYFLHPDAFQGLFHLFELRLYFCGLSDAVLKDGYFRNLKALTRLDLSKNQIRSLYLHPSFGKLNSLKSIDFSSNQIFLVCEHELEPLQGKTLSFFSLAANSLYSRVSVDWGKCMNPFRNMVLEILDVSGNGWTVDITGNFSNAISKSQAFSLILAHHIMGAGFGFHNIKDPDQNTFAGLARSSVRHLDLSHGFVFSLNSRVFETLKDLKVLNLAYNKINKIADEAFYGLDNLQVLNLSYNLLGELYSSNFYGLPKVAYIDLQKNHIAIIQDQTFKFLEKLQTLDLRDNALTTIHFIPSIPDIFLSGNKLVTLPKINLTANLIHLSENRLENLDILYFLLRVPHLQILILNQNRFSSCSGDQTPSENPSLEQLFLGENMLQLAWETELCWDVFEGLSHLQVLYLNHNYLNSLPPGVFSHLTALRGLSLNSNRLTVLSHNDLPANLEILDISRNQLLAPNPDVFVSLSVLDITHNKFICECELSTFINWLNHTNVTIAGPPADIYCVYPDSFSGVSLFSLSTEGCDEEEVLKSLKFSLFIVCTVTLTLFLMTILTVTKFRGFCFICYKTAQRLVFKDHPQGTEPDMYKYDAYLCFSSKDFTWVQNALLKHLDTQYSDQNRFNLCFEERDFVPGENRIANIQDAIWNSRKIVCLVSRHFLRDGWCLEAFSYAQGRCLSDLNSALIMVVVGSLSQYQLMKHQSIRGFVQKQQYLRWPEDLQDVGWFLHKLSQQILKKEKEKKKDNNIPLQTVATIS

Chain of Toll-like receptor 5 (TLR5) on TLR5/SEAPorter HEK 293 cells (IMGENEX, Cat. No. IML-105) (UniProt O60602) (O60602 21-858 limits assumed): as above

flagellin from Salmonella typhimurium (IMGENEX flagellin, Cat. No. IMG-2205) (from UniProt P06179 2-495) (ligand)
EC50 of TLR5 agonist activity (SEAP reporter, TLR5/SEAPorter HEK 293 cells) [1]: 0.29 ng/mL

B1: T81c-WRW-8RRVRA-D0-D1 : T81c-WRW-8RRVRA-T1BT* co-assembled nanoparticle (12:48) (other)
chain 1: MGHHHHHHASWRWDGGLVPRGSWQTWNARWDQWSNDWNAWRSDWQAWRDDWARWRALWMGGRLLLRLEELERRLEELERRLEELERFVAAWTLRVRALERRLEELERRIEEIARGMAQVINTNSLSLLTQNNLNKSQSALGTAIERLSSGLRINSAKDDAAGQAIANRFTANIKGLTQASRNANDGISIAQTTEGALNEINNNLQRVRELAVQSANSTNSQSDLDSIQAEITQRLNEIDRVSGQTQFNGVKVLAQDNTLTIQVGANDGETIDIDLKQINSQTLGLDSLNVHGAPVDPASPWTENPLQKIDAALAQVDALRSDLGAVQNRFNSAITNLGNTVNNLSEARSRIEDSDYATEVSNMSRAQILQQAGTSVLAQANQVPQNVLSLLR
chain 2: MGHHHHHHASEYLNKIQNSLSTEWSPSSVTGSWQTWNARWDQWSNDWNAWRSDWQAWRDDWARWRALWMGGRLLLRLEELERRLEELERRLEELERFVAAWTLRVRALERRLEELERRIEEIARGSGDPNANPNVDPNANPNVNANPNANPNANP
EC50 of TLR5 agonist activity (SEAP reporter, TLR5/SEAPorter HEK 293 cells) [2]: 0.0901 ng/mL | TLR5 activation relative to native flagellin [2]: ~3 fold

B2: LONG-D2-D1-ori self-assembling protein nanoparticle (other)
chain: MGHHHHHHASWRWDGGLVPRGSWQTWNARWDQWSNDWNAWRSDWQAWRDDWARWRALWMGGRLLLRLEELERRLEELERRLEELERFVAAWTLRVRALERRLEELERRIEEIARGSGSSARLSDLEANNAVKGESKITVNGAEYTANATGDKITLAGKTMFIDKTASGVSTLINEDAAAAKKSTANPLASIDSALSKVDAVRSSLGAIQNRFDSAIGSRNANDGISIAQTTEGALNEINNNLQRVRELSVQATNGTNSDSDLKSIQDEIQQRLEEIDRVSNQTQFNGVKVLSQDNQMKIQVGANDGETITIDLQKIDVKSLGLDGFNVNGPKEATVGDLKSSFKNVTGYDTYAAGADKYRVDINSGAV
EC50 of TLR5 agonist activity (SEAP reporter, TLR5/SEAPorter HEK 293 cells) [2]: 12.6 ng/mL

B3: PD52-2i88-PANDORA-D2-D1-ori : PD52-2i88-PANDORA-Noro co-assembled nanoparticle (5:55) (other)
chain 1: MGHHHHHHASGSWEKWNAKWDEWKNDWNDWRRDWQAWVDDWAYWTLTWKYGELYSKLAELERRNEELERRLEELARFVAALSMRLAELERRNEELARGSGSSARLSDLEANNAVRGESKITVNGAEYTANATGDRITLAGRTMFIDRTASGVSTLINEDAAAARRSTANPLASIDSALSRVDAVRSSLGAIQNRFDSAIGSKNANDGISIAQTTEGALNEINNNLQRVRELSVQATNGTNSDSDLRSIQDEIQQRLEEIDRVSNQTQFNGVKVLSQDNQMKIQVGAKDGETITIDLQKIDVKSLGLDGFNVNGPREATVGDLRSSFRNVTGYDTYAAGADRYRVDINSGAV
chain 2: MGHHHHHHASGSWEKWNAKWDEWKNDWNDWRRDWQAWVDDWAYWTLTWKYGELYSKLAELERRNEELERRLEELARFVAALSMRLAELERRNEELARGSGSTVEQKTRPFTLPNLPLSSLSNSRAPLPISSMGISPDNVQSVQFQNGRCTLDGRLVGTTPVSLSHVAKIRGTSNGTVINLTELDGTPFHPFEGPAPIGFPDLGGCDWHINMTQFGHSSQTQYDVDTTPDTFVPHLGSIQANGIGSGNYVGVLSWISPPSHPSGSQVDLWKIPNYGSSITEATHLAPSVYPPGFGEVLVFFMSKMPGPGAYNLPCLLPQEYISHLASEQAPTVGEAALLHYVDPDTGRNLGEFKAYPDGFLTCVPNGASSGPQQLPINGVFVFVSWVSRFYQLKPVGTAS
EC50 of TLR5 agonist activity (SEAP reporter, TLR5/SEAPorter HEK 293 cells) [2]: 17.7 ng/mL
